B1: "NAD(+) hydrolase SARM1" (Homo sapiens), Q6SZW1 (parent)
chain: MVLTLLLSAYKLCRFFAMSGPRPGAERLAVPGPDGGGGTGPWWAAGGRGPREVSPGAGTEVQDALERALPELQQALSALKQAGGARAVGAGLAEVFQLVEEAWLLPAVGREVAQGLCDAIRLDGGLDLLLRLLQAPELETRVQAARLLEQILVAENRDRVARIGLGVILNLAKEREPVELARSVAGILEHMFKHSEETCQRLVAAGGLDAVLYWCRRTDPALLRHCALALGNCALHGGQAVQRRMVEKRAAEWLFPLAFSKEDELLRLHACLAVAVLATNKEVEREVERSGTLALVEPLVASLDPGRFARCLVDASDTSQGRGPDDLQRLVPLLDSNRLEAQCIGAFYLCAEAAIKSLQGKTKVFSDIGAIQSLKRLVSYSTNGTKSALAKRALRLLGEEVPRPILPSVPSWKEAEVQTWLQQIGFSKYCESFREQQVDGDLLLRLTEEELQTDLGMKSGITRKRFFRELTELKTFANYSTCDRSNLADWLGSLDPRFRQYTYGLVSCGLDRSLLHRVSEQQLLEDCGIHLGVHRARILTAAREMLHSPLPCTGGKPSGDTPDVFISYRRNSGSQLASLLKVHLQLHGFSVFIDVEKLEAGKFEDKLIQSVMGARNFVLVLSPGALDKCMQDHDCKDWVHKEIVTALSCGKNIVPIIDGFEWPEPQVLPEDMQAVLTFNGIKWSHEYQEATIEKIIRFLQGRSSRDSSAGSDTSLEGAAPMGPT

Variants of: B1
Conditions: with myd88_human MYD88, Q99836
myd88_human MYD88, Q99836, sequence (Q99836 whole entry): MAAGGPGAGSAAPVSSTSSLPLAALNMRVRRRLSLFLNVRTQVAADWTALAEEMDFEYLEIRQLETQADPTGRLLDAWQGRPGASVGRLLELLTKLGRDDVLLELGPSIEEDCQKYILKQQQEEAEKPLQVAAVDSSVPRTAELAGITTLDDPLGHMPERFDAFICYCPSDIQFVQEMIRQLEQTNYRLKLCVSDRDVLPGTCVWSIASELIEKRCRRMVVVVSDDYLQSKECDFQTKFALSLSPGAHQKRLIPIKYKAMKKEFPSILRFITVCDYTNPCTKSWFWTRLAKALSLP

effect of a mutation on the interaction | Variant
disrupting interaction strength | G601A

Variants of: B1
Conditions: with tcam1_human TICAM1, Q8IUC6
tcam1_human TICAM1, Q8IUC6, sequence (Q8IUC6 whole entry): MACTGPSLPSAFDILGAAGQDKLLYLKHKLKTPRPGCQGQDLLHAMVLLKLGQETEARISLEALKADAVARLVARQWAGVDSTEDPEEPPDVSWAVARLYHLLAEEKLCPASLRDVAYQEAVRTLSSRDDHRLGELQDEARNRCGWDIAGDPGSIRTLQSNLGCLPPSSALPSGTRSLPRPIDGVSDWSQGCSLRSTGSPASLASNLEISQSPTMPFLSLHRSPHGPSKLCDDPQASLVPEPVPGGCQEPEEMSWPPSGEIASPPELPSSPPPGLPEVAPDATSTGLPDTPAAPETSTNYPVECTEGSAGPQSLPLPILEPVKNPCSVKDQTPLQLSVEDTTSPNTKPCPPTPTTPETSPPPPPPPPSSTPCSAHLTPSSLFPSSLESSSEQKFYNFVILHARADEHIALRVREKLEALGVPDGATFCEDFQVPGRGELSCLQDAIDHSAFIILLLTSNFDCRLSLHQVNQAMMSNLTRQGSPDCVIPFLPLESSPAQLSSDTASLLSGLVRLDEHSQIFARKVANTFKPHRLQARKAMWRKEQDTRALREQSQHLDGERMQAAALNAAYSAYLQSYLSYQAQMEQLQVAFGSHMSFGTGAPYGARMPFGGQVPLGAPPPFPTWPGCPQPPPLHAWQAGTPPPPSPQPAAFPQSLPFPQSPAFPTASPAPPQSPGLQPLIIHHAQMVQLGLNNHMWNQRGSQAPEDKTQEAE

effect of a mutation on the interaction | Variant
disrupting interaction strength | G601A

Variants of: B1
Conditions: with tirap_human TIRAP

effect of a mutation on the interaction | Variant
disrupting interaction strength | G601A

Variants of: B1
Conditions: with tcam2_human TICAM2, Q86XR7
tcam2_human TICAM2, Q86XR7, sequence (Q86XR7 whole entry): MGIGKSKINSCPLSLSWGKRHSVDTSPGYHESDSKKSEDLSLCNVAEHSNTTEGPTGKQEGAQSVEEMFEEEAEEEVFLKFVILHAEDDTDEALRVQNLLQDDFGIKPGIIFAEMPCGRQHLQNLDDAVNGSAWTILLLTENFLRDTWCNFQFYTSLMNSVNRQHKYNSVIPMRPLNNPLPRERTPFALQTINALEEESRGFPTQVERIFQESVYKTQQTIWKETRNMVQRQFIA

effect of a mutation on the interaction | Variant
disrupting interaction strength | G601A
